Data published in IntAct's records for PubMed 24268649.

These substances were tested against ncor2_human NCOR2 (UniProt Q9Y618).
Sequence of ncor2_human NCOR2 (Q9Y618 whole entry): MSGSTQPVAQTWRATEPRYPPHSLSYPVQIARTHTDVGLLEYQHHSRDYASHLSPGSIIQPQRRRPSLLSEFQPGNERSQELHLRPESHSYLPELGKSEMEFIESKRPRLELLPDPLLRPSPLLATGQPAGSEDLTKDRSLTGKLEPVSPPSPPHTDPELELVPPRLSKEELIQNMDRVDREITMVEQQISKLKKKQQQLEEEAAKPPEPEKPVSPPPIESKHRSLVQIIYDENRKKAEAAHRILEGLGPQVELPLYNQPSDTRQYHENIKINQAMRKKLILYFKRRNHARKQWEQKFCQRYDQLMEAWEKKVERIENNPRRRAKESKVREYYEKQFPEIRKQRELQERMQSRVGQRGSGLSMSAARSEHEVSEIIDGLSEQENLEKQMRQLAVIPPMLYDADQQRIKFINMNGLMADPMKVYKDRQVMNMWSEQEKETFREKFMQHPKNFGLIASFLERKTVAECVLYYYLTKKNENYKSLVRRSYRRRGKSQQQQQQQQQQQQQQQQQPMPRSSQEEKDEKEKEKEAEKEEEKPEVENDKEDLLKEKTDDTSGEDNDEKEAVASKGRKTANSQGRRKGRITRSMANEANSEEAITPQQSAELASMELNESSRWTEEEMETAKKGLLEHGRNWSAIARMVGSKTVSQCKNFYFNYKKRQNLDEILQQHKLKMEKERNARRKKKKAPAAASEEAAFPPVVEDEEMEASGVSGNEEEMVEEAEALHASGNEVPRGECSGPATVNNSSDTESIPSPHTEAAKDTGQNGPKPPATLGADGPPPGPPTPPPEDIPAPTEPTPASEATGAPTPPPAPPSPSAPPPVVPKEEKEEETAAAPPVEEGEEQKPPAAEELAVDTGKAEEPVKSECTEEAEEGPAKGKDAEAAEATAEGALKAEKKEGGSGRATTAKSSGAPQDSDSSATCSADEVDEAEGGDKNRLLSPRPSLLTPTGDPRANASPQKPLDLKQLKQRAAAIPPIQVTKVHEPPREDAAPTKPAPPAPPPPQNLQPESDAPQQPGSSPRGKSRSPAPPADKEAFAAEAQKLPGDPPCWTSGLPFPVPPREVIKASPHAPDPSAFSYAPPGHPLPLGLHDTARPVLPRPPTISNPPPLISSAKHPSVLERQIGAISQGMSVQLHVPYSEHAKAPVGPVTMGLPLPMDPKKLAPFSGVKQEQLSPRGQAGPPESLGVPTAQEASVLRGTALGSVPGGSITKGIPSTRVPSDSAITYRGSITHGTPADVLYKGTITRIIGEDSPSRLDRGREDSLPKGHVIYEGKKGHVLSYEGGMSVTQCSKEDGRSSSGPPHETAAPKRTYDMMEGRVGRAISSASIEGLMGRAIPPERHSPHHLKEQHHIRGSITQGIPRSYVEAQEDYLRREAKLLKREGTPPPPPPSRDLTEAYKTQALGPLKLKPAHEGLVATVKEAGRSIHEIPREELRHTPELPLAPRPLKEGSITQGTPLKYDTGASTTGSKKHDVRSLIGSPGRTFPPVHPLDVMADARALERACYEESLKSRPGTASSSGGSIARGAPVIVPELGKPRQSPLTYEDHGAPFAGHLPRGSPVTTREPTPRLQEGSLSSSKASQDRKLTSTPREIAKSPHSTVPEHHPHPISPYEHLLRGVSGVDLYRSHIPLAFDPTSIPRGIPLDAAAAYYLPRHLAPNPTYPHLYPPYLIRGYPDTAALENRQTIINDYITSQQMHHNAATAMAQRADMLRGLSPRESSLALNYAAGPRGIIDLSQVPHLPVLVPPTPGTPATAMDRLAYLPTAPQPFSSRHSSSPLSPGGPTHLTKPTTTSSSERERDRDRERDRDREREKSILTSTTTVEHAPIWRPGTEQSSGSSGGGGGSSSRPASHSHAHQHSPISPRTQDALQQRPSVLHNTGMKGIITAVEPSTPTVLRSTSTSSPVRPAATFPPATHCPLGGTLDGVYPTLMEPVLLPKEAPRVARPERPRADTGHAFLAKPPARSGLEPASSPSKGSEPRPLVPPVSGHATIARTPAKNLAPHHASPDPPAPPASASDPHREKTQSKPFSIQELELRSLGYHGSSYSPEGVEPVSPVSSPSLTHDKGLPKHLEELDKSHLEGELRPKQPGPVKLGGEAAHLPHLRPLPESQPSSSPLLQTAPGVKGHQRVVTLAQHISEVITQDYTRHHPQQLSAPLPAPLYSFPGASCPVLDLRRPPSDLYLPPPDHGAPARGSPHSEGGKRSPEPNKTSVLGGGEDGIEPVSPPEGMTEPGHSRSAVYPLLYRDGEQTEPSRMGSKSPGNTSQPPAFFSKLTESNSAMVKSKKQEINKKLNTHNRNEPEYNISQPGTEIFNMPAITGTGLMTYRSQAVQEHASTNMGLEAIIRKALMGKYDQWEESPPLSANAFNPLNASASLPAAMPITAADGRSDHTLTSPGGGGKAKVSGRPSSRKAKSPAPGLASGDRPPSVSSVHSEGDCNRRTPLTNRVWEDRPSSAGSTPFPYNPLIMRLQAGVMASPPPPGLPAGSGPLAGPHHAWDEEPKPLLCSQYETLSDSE

| Substance | effect of a mutation on the interaction |
| --- | --- |
| Msx2-interacting protein (Homo sapiens), Q96T58 K3516A | disrupting interaction strength |
| Msx2-interacting protein (Homo sapiens), Q96T58 K3606A | disrupting interaction strength |
| Msx2-interacting protein (Homo sapiens), Q96T58 L3515A | decreasing interaction strength |
| Msx2-interacting protein (Homo sapiens), Q96T58 R3552A | disrupting interaction strength |
| Msx2-interacting protein (Homo sapiens), Q96T58 R3552K | decreasing interaction strength |
| Msx2-interacting protein (Homo sapiens), Q96T58 Y3602A | decreasing interaction strength |

Other lines, results leading:

| effect of a mutation on the interaction | Substance |
| --- | --- |
| decreasing interaction strength | Msx2-interacting protein (Homo sapiens), Q96T58 M3553A |
| decreasing interaction strength | Msx2-interacting protein (Homo sapiens), Q96T58 Q3551A |
| decreasing interaction strength | Msx2-interacting protein (Homo sapiens), Q96T58 R3548A |
| decreasing interaction strength | Msx2-interacting protein (Homo sapiens), Q96T58 R3554A |
